Test results: paper PMC9942873 (Immunity, 2023)

Columns and labels:
Assay in all cases: ELISA
Details in all cases: both partners purified
[1] = molecular target: Pfs48/45 D2-3 (Plasmodium falciparum 3D7, UniProt Q8I6T1)
[2] = molecular target: recombinant full-length Pfs48/45 (Plasmodium falciparum 3D7, UniProt Q8I6T1)
[3] = molecular target: Pfs48/45 D1-2 (Plasmodium falciparum 3D7, UniProt Q8I6T1)

Measured: binding result

Sequence of recombinant full-length Pfs48/45 (Q8I6T1 28-428): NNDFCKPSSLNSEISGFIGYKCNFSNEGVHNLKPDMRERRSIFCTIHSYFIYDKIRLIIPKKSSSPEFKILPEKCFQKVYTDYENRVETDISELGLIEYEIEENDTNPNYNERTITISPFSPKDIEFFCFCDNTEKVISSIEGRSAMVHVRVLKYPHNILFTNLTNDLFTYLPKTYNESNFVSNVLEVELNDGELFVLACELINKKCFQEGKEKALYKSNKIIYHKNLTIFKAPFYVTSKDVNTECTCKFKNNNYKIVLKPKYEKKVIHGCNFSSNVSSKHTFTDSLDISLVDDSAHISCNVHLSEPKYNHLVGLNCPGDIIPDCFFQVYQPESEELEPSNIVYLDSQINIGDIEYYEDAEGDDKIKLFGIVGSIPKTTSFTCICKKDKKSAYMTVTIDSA
Sequence of Pfs48/45 D1-2 (Q8I6T1 28-289): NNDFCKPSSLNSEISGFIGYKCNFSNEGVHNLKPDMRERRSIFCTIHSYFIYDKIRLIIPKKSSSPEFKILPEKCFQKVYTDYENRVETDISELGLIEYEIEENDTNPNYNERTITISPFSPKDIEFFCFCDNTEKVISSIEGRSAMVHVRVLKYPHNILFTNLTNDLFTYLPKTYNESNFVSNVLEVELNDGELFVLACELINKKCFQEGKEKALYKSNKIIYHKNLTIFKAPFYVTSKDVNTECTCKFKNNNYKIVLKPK
Sequence of Pfs48/45 D2-3 (Q8I6T1 184-428): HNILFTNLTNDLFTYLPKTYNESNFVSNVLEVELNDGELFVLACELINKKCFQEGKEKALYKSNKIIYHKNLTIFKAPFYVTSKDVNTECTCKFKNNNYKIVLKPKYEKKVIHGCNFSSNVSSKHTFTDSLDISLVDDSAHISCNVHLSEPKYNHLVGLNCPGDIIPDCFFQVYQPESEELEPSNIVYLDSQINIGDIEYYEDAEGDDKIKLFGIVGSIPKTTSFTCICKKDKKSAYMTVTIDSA

B1: RUPA-151 (antibody, V domains shown)
VH: QVQLVQSGAEVKKTGASVKVSCKASGYTFTSHDIIWVRQAAGQGLEWMGWLNPNTGKKGYVEKFQGRVMLTRNMSTGTAYMELSSLRSDDSAIYYCARGVGTYHGSEGWLDPWGQGTLVTVSS
VL: QSVLTQPPSASETPGQGVTISCSGSSSNVGSNAVNWYQQLPGRAPKLLMYNTNQRPSGVPDRFSGSKSGTSASLAISGLRSADEADYYCAAWDDSLKRGVFGGGTKLTVL
notes: human IgG1; source: recombinant human IgG1, 293T (Protein A purified) or GenScript
binds: all assays above

B2: RUPA-113 (antibody, V domains shown)
VH: QVQLVQSGAELKKPGASVKVSCKASGYTFTSHDITWVRQAPGQGLEWMGWMNPNTGDRGYARNFQGRLTLTRDMSISTAFMVLSSLRPEDTAVYYCTRGVGTYHGAGGWFDPWGQGTLVSVSS
VL: QSVLTQPPSASETPGQRVTISCSGSSSNIGSNIVSWYQQLPGTAPKLLIYNNNQRPSGVPDRFSGSQSGTSASLAISGLQSEDEADYYCATWDDSLERGVFGGGTKLTVL
notes: as for B1
binds: all assays above

B3: RUPA-144 (antibody, V domains shown)
VH: QVQLVQSGAEVKKTGASVKVSCKASGYTFTSHDIIWVRQAAGQGLEWMGWMNPNTGKKGYVQKFQGRVMLTRNMSTGTAYMELSSLRSDDSAVYYCARGVGTYYGSEGWLDPWGQGTLVTVSS
VL: QSVLTQPPSASETPGQRVTISCSGSSSNVGSNTVNWYQQLPGTAPKLLMYNTNQRPSGVPDRFSGSKSGTSASLAISGLRSDDEADYYCATWDDSLKRGVFGGGTKLTVL
notes: as for B1
binds: all assays above

B4: RUPA-143 (antibody, V domains shown)
VH: QVQLVQSGAEVKKPGASVKVSCKASASTIANFAVSWVRQAPGQGLEWMGWISVYNVKTGDVKYAPKFQGRVTLTIDTATSTASMELRSLRFDDTAVYYCARANWYDNVWQEYFYGMDVWGQGTTVTVSS
VL: DIQMTQSPLTLSASVGDRVTITCRASQSVSRFLAWYQQKPGKAPKLLMYKVSNLESGVPSRFSGSGFGTQFTLTISSLQPDDFATYYCQHYDAYPWTFGQGTKVEIK
notes: as for B1
binds: all assays above

B5: RUPA-108 (antibody, V domains shown)
VH: EVVLVESGGGLIQPGGSLRLSCAASGFTVSSSYMSWVRQAPGKGLEWVSVIYSGAGGGSIYYADSVKGRFTISRDNLKNTLYLQMNSLRVEDAAVYYCVRDSRGWGYFDDWGQGTLVTVSS
VL: EIILTQSPGTLSLSPGERATLSCRASQSIRTNYLAWYQRKPGQTPRLLIYGASSRATGIPDRFSGSGSGTDFTLTISRLEPEDFAEYFCQQYQNSPWTFGQGTIVEIK
notes: as for B1
binds: all assays above

B6: RUPA-105 (antibody, V domains shown)
VH: QVQLVQSGAEVKKPGASVKVSCTASGYNFLTHDISWVRQATGQGLEWMGWMNPNTGKKGYVQKFQGRVTMDRDMSKSTGYMELRSLTSEDTAVYYCVRGVGSYYGSGGWLDPWGQGTLVIVSS
VL: QSVLTQPPSASETPGQKVTISCSGSSSNIGSDTVSWYVQVPGTAPKLLIYNDNQRPSGVPDRFSGSKSGTSASLAISGLQSEDEADYYCATWDASLKRRVFGGGTTLTVL
notes: as for B1
binds: all assays above

B7: RUPA-148 (antibody, V domains shown)
VH: QVQLVQSGAEVKKPGASVKVSCTASGYNFLTHDISWVRQATGQGLEWMGWMNPNTGKKGYVQKFQGRVTMDRDMSKSTAYMELRSLTSEDTAVYYCVRGVGSYYGSGGWFDPWGQGTLVTVSS
VL: QSVLTQPPSASETPGQKVTISCSGSSSNIGSDTVSWYVQLPGTAPKLLIYNDNQRPPGVPDRFSGSKSGTSASLAISGLQSEDEADYYCATWDASLKRRVFGGGTTLTVL
notes: as for B1
binds: all assays above

B8: RUPA-147 (antibody, V domains shown)
VH: QVQLVQSGAEVKKPGASVKVSCTASGYNFLTHDISWVRQATGQGLEWMGWMNPNTGKKGYVQKFQGRVTMDRDMSKSTAYMELRSLTSEDTAVYYCVRGVGSYYGSGGWFDPWGQGTLVTVSS
VL: QSVLTQPPSASETPGQKVTISCSGSSSNIGSDTVSWYVQLPGTAPKLLIYNDNQRPSRVPDRFSGSKSGTSASLAISGLQSEDEADYYCATWDASLKRRVFGGGTTLTVL
notes: as for B1
binds: all assays above

B9: RUPA-111 (antibody, V domains shown)
VH: EVQLVESGGGLVQPGGSLRLSCVVSGFTFSRYSMYWVRQAPGKGPEWVSYIDSTGTTIYYADSVKGRFTISRDNAKSSLSLQMSSLRDDDRGVYYCARDGRKDSGSFLDHWGQGTLVIVSS
VL: DIQMTQSPSTLSASVGDRVTITCRASQSISEWLAWYQQKPGKAPRLLIYQASSLQSGVPSRFSGSGSGTEFTLTISSLQSDDFATYYCQQFDTYWTFGQGTKVEVR
notes: as for B1
binds: all assays above

B10: RUPA-150 (antibody, V domains shown)
VH: QVQLQQWGAGLLKPSETLSLTCLVNGGSFSDYYWSWIRQPPGRGLEWIGDVNHSGTTNHRPSLQSRVTLSLDMSKNQFSLKLTSVTAADTAVYFCARRSSGYYRGSRYTGWFDPWGQGTLVTVSS
VL: EIVMTQSPATLSVSPGERATLSCRASQSVSSNLAWYQQKPGQTPRLLIYGSSTRATGIPARFSGSGSGTEFALTISSLQSEDFAVYYCQQYNNWPPPWTFGQGTKVEIK
notes: as for B1
binds: all assays above

B11: RUPA-153 (antibody, V domains shown)
VH: QVQLQESGPGLVKPSQTLSLTCTVSGSSVSSGGYYWSWIRQHPGKGLEWIGYLYYSGNTGNTFYNPSLKSRVTISADPSKNQFSLELSSVTAADTAMYYCARAVGVGRYFGYFPSWGLGTLVTVSS
VL: EIVMTQSPATLSVSPGERATLSCRASQSVSSNLAWYQQKPGQTPRLLIYGSSTRATGIPARFSGSGSGTEFALTISSLQSEDFAVYYCQQYNNWPPPWTFGQGTKVEIK
notes: as for B1
binds: all assays above

B12: RUPA-149 (antibody, V domains shown)
VH: EVQLVESGGGVVQPGGSLRLSCAASGFTFSNFGMHWVRQAPGKGLEWVAKISYDGSNKYYADFVKGRFTISRDKATNTVHLQMNSLSAEDRGIYYCAKDKVFGVVANHHQYGLDVWGQGTTVTVSS
VL: DIQMTQSPASLSASVGDRVTITCRASQNIHLYLHWYQQKPGKAPELLIFTTNTLHRGVPSRFRGSGSGTEFALTISDLQPEDFATYYCQQSYTTPHFTFGQGTKLEIK
notes: as for B1
binds: all assays above

B13: RUPA-161 (antibody, V domains shown)
VH: QVQLVQSGAEVKKPGASVKVSCKASGYTFLYHDIIWMRQATGQGPEWMGWINPNTGNTGLAQKFQGRVSLTRNMSSGTAYMELRSLRSEDRAIYYCARGVGTYHGSGGWFDPWGQGTLVTVSS
VL: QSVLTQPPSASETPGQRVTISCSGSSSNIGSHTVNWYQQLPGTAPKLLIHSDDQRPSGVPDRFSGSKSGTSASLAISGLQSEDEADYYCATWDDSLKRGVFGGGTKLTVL
notes: as for B1
binds: all assays above
